First the molecules themselves.
B1: PSMD12 (protein)
chain: ADGGSERADGRIVKMEVDYSATVDQRLPECAKLAKEGRLQEVIETLLSLEKQTRTASDMVSTSRILVAVVKMCYEAKEWDLLNENIMLLSKRRSQLKQAVAKMVQQCCTYVEEITDLPIKLRLIDTLRMVTEGKIYVEIERARLTKTLATIKEQNGDVKEAASILQELQVETYGSMEKKERVEFILEQMRLCLAVKDYIRTQIISKKINTKFFQEENTEKLKLKYYNLMIQLDQHEGSYLSICKHYRAIYDTPCIQAESEKWQQALKSVVLYVILAPFDNEQSDLVHRISGDKKLEEIPKYKDLLKLFTTMELMRWSTLVEDYGMELRKGSLESPATDVFGSTEEGEKRWKDLKNRVVEHNIRIMAKYYTRITMKRMAQLLDLSVDESEAFLSNLVVNKTIFAKVDRLAGIINFQRPKDPNNLLNDWSQKLNSLMSLVNKTTHLIAKEEMIHNLQ
B2: TECR (protein)
chain: MKHYEVEILDAKTREKLCFLDKVEPHATIAEIKNLFTKTHPQWYPARQSLRLDPKGKSLKDEDVLQKLPVGTTATLYFRDLGAQISWVTVFLTEYAGPLFIYLLFYFRVPFIYGHKYDFTSSRHTVVHLACICHSFHYIKRLLETLFVHRFSHGTMPLRNIFKNCTYYWGFAAWMAYYINHPLYTPPTYGAQQVKLALAIFVICQLGNFSIHMALRDLRPAGSKTRKIPYPTKNPFTWLFLLVSCPNYTYEVGSWIGFAIMTQCLPVALFSLVGFTQMTIWAKGKHRSYLKEFRDYPPLRMPIIPFLL
B3: PHGDH (protein)
chain: AFANLRKVLISDSLDPCCRKILQDGGLQVVEKQNLSKEELIAELQDCEGLIVRSATKVTADVINAAEKLQVVGRAGTGVDNVDLEAATRKGILVMNTPNGNSLSAAELTCGMIMCLARQIPQATASMKDGKWERKKFMGTELNGKTLGILGLGRIGREVATRMQSFGMKTIGYDPIISPEVSASFGVQQLPLEEIWPLCDFITVHTPLLPSTTGLLNDNTFAQCKKGVRVVNCARGGIVDEGALLRALQSGQCAGAALDVFTEEPPRDRALVDHENVISCPHLGASTKEAQSRCGEEIAVQFVDMVKGKSLTGVVNAQALTSAFSPHTKPWIGLAEALGTLMRAWAGSPKGTIQVITQGTSLKNAGNCLSPAVIVGLLKEASKQADVNLVNAKLLVKEAGLNVTTSHSPAAPGEQGFGECLLAVALAGAPYQAVGLVQGTTPVLQGLNGAVFRPEVPLRRDLPLLLFRTQTSDPAMLPTMIGLLAEAGVRLLSYQTSLVSDGETWHVMGISSLLPSLEAWKQHVTEAFQFHF
B4: XPO5 (protein)
chain: AMDQVNALCEQLVKAVTVMMDPNSTQRYRLEALKFCEEFKEKCPICVPCGLRLAEKTQVAIVRHFGLQILEHVVKFRWNGMSRLEKVYLKNSVMELIANGTLNILEEENHIKDALSRIVVEMIKREWPQHWPDMLIELDTLSKQGETQTELVMFILLRLAEDVVTFQTLPPQRRRDIQQTLTQNMERIFSFLLNTLQENVNKYQQVKTDTSQESKAQANCRVGVAALNTLAGYIDWVSMSHITAENCKLLEILCLLLNEQELQLGAAECLLIAVSRKGKLEDRKPLMVLFGDVAMHYILSAAQTADGGGLVEKHYVFLKRLCQVLCALGNQLCALLGADSDVETPSNFGKYLESFLAFTTHPSQFLRSSTQMTWGALFRHEILSRDPLLLAIIPKYLRASMTNLVKMGFPSKTDSPSCEYSRFDFDSDEDFNAFFNSSRAQQGEVMRLACRLDPKTSFQMAGEWLKYQLSTFLDAGSVNSCSAVGTGEGSLCSVFSPSFVQWEAMTLFLESVITQMFRTLNREEIPVNDGIELLQMVLNFDTKDPLILSCVLTNVSALFPFVTYRPEFLPQVFSKLFSSVTFETVEESKAPRTRAVRNVRRHACSSIIKMCRDYPQLVLPNFDMLYNHVKQLLSNELLLTQMEKCALMEALVLISNQFKNYERQKVFLEELMAPVASIWLSQDMHRVLSDVDAFIAYVGTDQKSCDPGLEDPCGLNRARMSFCVYSILGVVKRTCWPTDLEEAKAGGFVVGYTSSGNPIFRNPCTEQILKLLDNLLALIRTHNTLYAPEMLAKMAEPFTKALDMLDAEKSAILGLPQPLLELNDSPVFKTVLERMQRFFSTLYENCFHILGKAGPSMQQDFYTVEDLATQLLSSAFVNLNNIPDYRLRPMLRVFVKPLVLFCPPEHYEALVSPILGPLFTYLHMRLSQKWQVINQRSLLCGEDEAADENPESQEMLEEQLVRMLTREVMDLITVCCVSKKGADHSSAPPADGDDEEMMATEVTPSAMAELTDLGKCLMKHEDVCTALLITAFNSLAWKDTLSCQRTTSQLCWPLLKQVLSGTLLADAVTWLFTSVLKGLQMHGQHDGCMASLVHLAFQIYEALRPRYLEIRAVMEQIPEIQKDSLDQFDCKLLNPSLQKVADKRRKDQFKRLIAGCIGKPLGEQFRKEVHIKNLPSLFKKTKPMLETEVLDNDGGGLATIFEP
B5: LPCAT1 (protein)
chain: MRLRGCGPRAAPASSAGASDARLLAPPGRNPFVHELRLSALQKAQVALMTLTLFPVRLLVAAAMMLLAWPLALVASLGSAEKEPEQPPALWRKVVDFLLKAIMRTMWFAGGFHRVAVKGRQALPTEAAILTLAPHSSYFDAIPVTMTMSSIVMKAESRDIPIWGTLIQYIRPVFVSRSDQDSRRKTVEEIKRRAQSNGKWPQIMIFPEGTCTNRTCLITFKPGAFIPGAPVQPVVLRYPNKLDTITWTWQGPGALEILWLTLCQFHNQVEIEFLPVYSPSEEEKRNPALYASNVRRVMAEALGVSVTDYTFEDCQLALAEGQLRLPADTCLLEFARLVRGLGLKPEKLEKDLDRYSERARMKGGEKIGIAEFAASLEVPVSDLLEDMFSLFDESGSGEVDLRECVVALSVVCRPARTLDTIQLAFKMYGAQEDGSVGEGDLSCILKTALGVAELTVTDLFRAIDQEEKGKITFADFHRFAEMYPAFAEEYLYPDQTHFESCAETSPAPIPNGFCADFSPENSDAGRKPVRKKLD
B6: ADCK4 (protein)
chain: MWLKVGGLLRGTGGQLGQTVGWPCGALGPGPHRWGPCGGSWAQKFYQDGPGRGLGEEDIRRAREARPRKTPRPQLSDRSRERKVPASRISRLANFGGLAVGLGLGVLAEMAKKSMPGGRLQSEGGSGLDSSPFLSEANAERIVQTLCTVRGAALKVGQMLSIQDNSFISPQLQHIFERVRQSADFMPRWQMLRVLEEELGRDWQAKVASLEEVPFAAASIGQVHQGLLRDGTEVAVKIQYPGIAQSIQSDVQNLLAVLKMSAALPAGLFAEQSLQALQQELAWECDYRREAACAQNFRQLLANDPFFRVPAVVKELCTTRVLGMELAGGVPLDQCQGLSQDLRNQICFQLLTLCLRELFEFRFMQTDPNWANFLYDASSHQVTLLDFGASREFGTEFTDHYIEVVKAAADGDRDCVLQKSRDLKFLTGFETKAFSDAHVEAVMILGEPFATQGPYDFGSGETARRIQDLIPVLLRHRLCPPPEETYALHRKLAGAFLACAHLRAHIACRDLFQDTYHRYWASRQPDAATAGSLPTKGDSWVDPS
B7: VDAC2 (protein)
chain: MSWCNELRLPALKQHSIGRGLESHITMCIPPSYADLGKAARDIFNKGFGFGLVKLDVKTKSCSGVEFSTSGSSNTDTGKVTGTLETKYKWCEYGLTFTEKWNTDNTLGTEIAIEDQICQGLKLTFDTTFSPNTGKKSGKIKSSYKRECINLGCDVDFDFAGPAIHGSAVFGYEGWLAGYQMTFDSAKSKLTRNNFAVGYRTGDFQLHTNVNDGTEFGGSIYQKVCEDLDTSVNLAWTSGTNCTRFGIAAKYQLDPTASISAKVNNSSLIGVGYTQTLRPGVKLTLSALVDGKSINAGGHKVGLALELEA
B8: AGPAT6 (protein)
chain: VSFGIRKLYMKSLLKIFAWATLRMERGAKEKNHQLYKPYTNGIIAKDPTSLEEEIKEIRRSGSSKALDNTPEFELSDIFYFCRKGMETIMDDEVTKRFSAEELESWNLLSRTNYNFQYISLRLTVLWGLGVLIRYCFLLPLRIALAFTGISLLVVGTTVVGYLPNGRFKEFMSKHVHLMCYRICVRALTAIITYHDRENRPRNGGICVANHTSPIDVIILASDGYYAMVGQVHGGLMGVIQRAMVKACPHVWFERSEVKDRHLVAKRLTEHVQDKSKLPILIFPEGTCINNTSVMMFKKGSFEIGATVYPVAIKYDPQFGDAFWNSSKYGMVTYLLRMMTSWAIVCSVWYLPPMTREADEDAVQFANRVKSAIARQGGLVDLLWDGGLKREKVKDTFKEEQQKLYSKMIVGNHKDRSRS

Data on eight molecules can be found in patent US11471462B2, “Compositions and methods for detecting and treating diabetes” (THE BROAD INSTITUTE, INC., priority 2016, dated 2022).

The test system of this assay is SLC16A11. The experiment in a line: SLC16A11 protein-protein interaction study (immunoprecipitation, quantitative mass spectrometry). The arrangement: species or system human. The conditions noted are these: putative SLC16A11^REF interaction partners; immunoprecipitation from HEK293T cells vs empty vector control; Blandt-Altman. From the text: Alternatively, these variants may result in reduced transport because they disrupt protein-protein interactions responsible for correct SLC16A11 function. To explore this possibility, SLC16A11 was immunoprecipitated from HEK293T cells expressing either REF or T2D risk SLC16A11-V5 or empty vector control and quantitative mass spectrometry was used to define the SLC16A11 interactome.
Another mechanism through which the variants could affect activity is through disruption of protein-protein interactions. To explore this possibility, quantitative mass spectrometry-based protein-protein interaction studies were performed to define the SLC16A11 interactome and evaluate if the T2D risk coding variants alter any interactions.
Beads were then washed once with lysis buffer and three times with wash buffer. After the last wash, residual wash buffer was removed, 10 μL fresh wash buffer was added, and beads were stored at −80° C. until analysis by the Proteomics Platform at the Broad Institute, as detailed in the “Proteomics Methods for SLC16A11 Protein Interaction Studies” below.
The beads from immunopurification were washed once with IP lysis buffer, then three times with PBS, the three different lysates of each replicate were resuspended in 90 uL digestion buffer (2M Urea, 50 mM Tris HCl), 2 ug of sequencing grade trypsin added, 1 hour shaking at 700 rpm. The supernatant was removed and placed in a fresh tube. The beads were then washed twice with 50 uL digestion buffer and combined with the supernatant. The combined supernatants were reduced (2 uL 500 mM DTT, 30 minutes, RT), alkylated (4 uL 500 mM IAA, 45 minutes, dark) and a longer overnight digestion performed: 2 ug (4 uL) trypsin, shake o/n, The samples were then quenched with 20 uL 10% FA and desalted on 10 mg SepPak columns.
Desalted peptides were labelled with iTRAQ reagents according to the manufacturer's instructions (AB Sciex, Foster City, Calif.). Peptides were dissolved in 30 μl of 0.5 M TEAB pH 8.5 solution and labeling reagent was added in 70 ul of ethanol. After 1 h incubation the reaction was stopped with 50 mM Tris/HCl pH 7.5. Differentially labelled peptides were mixed and subsequently desalted on 10 mg SepPak columns.
Reconstituted peptides were separated on an online nanoflow EASY-nLC 1000 UHPLC system (Thermo Fisher Scientific) and analyzed on a benchtop Orbitrap Q Exactive Plus mass spectrometer (Thermo Fisher Scientific). The peptide samples were injected onto a capillary column (Picofrit with 10 μm tip opening/75 μm diameter, New Objective, PF360-75-10-N-5) packed in-house with 20 cm C18 silica material (1.9 μm ReproSil-Pur C18-AQ medium, Dr. Maisch GmbH, r119.aq). The UHPLC setup was connected with a custom-fit microadapting tee (360 μm, IDEX Health & Science, UH-753), and capillary columns were heated to 50° C. in column heater sleeves (Phoenix-ST) to reduce backpressure during UHPLC separation. Injected peptides were separated at a flow rate of 200 nL/min with a linear 80 min gradient from 100% solvent A (3% acetonitrile, 0.1% formic acid) to 30% solvent B (90% acetonitrile, 0.1% formic acid), followed by a linear 6 min gradient from 30% solvent B to 90% solvent B. Each sample was run for 120 min, including sample loading and column equilibration times. The Q Exactive instrument was operated in the data-dependent mode acquiring HCD MS/MS scans (R=17,500) after each MS1 scan (R=70,000) on the 12 top most abundant ions using an MS1 ion target of 3×10^6 ions and an MS2 target of 5×10^4 ions. The maximum ion time utilized for the MS/MS scans was 120 ms; the HCD-normalized collision energy was set to 27; the dynamic exclusion time was set to 20 s, and the peptide match and isotope exclusion functions were enabled.
All mass spectra were processed using the Spectrum Mill software package v6.0 pre-release (Agilent Technologies) which includes modules developed by us for iTRAQ-based quantification. […]
B1: the “BA log fold change” value is recorded as 1.18.

Regarding B2, the “BA log fold change” value was determined as 1.10.

As for B3, the “BA log fold change” value is on record as 1.11.

As to B4, the “BA log fold change” value was 1.14.

In the case of B5, the “BA log fold change” value stood at 1.16.

On to B6, for which the “BA log fold change” value came out at 1.11.

On to B7, for which the “BA log fold change” value is 1.14.

In the case of B8, the “BA log fold change” value amounted to 1.16.
